Test results: patent US20090280138A1 (OXFORD BIOMEDICA UK, published 2009)

Experiments:
Assay in all cases: iTopia iScore
[1] = target: T1, MHC class I molecule A*0101 (biotin (bound to streptavidin-coated plate))
T1 construct: also called A1; HLA-A1
Procedure: (§1) The 9 mers were tested for Peptide Binding, Off Rate and Affinity using iTopia Epitope Discovery System in accordance with the manufacturer's instructions. Briefly, 96 well microtitre plates coated with MHC molecules representing different MHC alleles are used to identify candidate peptides. […] Determinations are performed in duplicate using an ELISA plate reader and included allele specific positive controls.
(§2) Finally, multiparametric analysis is performed on the results from these assays and an iScore is generated. The iScore represents a measure of the overall quality of peptide-MHC binding, enabling candidate peptides to be ranked in order of binding quality and allowing rational prioritisation of peptides for functional cellular follow-up studies.

[2] = target: T2, MHC class I molecule A*0201 (biotin (bound to streptavidin-coated plate))
T2 construct: also called A2; HLA-A2
Procedure: as §1, §2

[3] = target: T3, MHC class I molecule A*0301 (biotin (bound to streptavidin-coated plate))
T3 construct: also called A3; HLA-A3
Procedure: as §1, §2

[4] = target: T4, MHC class I molecule B*0702 (biotin (bound to streptavidin-coated plate))
T4 construct: also called B7; HLA-B7
Procedure: as §1, §2

Binder	iScore [1]	iScore [2]	iScore [3]	iScore [4]
PFAFSGSNA [5T4 9-mer peptide 80 PFAFSGSNA]	0	0	0	0
SLRQLDLSH [5T4 9-mer peptide 72 SLRQLDLSH]	0	0	0	0
LPSLRQLDL [5T4 9-mer peptide 71 LPSLRQLDL]	0	0.098	0	0.454
LPSLRHLDL [5T4 9-mer peptide 117 LPSLRHLDL]	0	0.028	0	0.445
TGNQLAVLP [5T4 9-mer peptide 50 TGNQLAVLP]	0	0.044	0	0
HNPLADLSP [5T4 9-mer peptide 76 HNPLADLSP]	0	0	0	0
PPLAELAAL [5T4 9-mer peptide 58 PPLAELAAL]	0	0.075	0	0.145
VLPAGAFAR [5T4 9-mer peptide 53 VLPAGAFAR]	0	0.081	0.027	0
LVELILNHI [5T4 9-mer peptide 88 LVELILNHI]	0	0.109	0	0
RLDEVRAGA [5T4 9-mer peptide 65 RLDEVRAGA]	0	0.422	0.057	0.032
LSGSRLDEV [5T4 9-mer peptide 63 LSGSRLDEV]	0	0.075	0	0.107
LAELAALNL [5T4 9-mer peptide 59 LAELAALNL]	0	0.72	0	0.074
AGAFEHLPS [5T4 9-mer peptide 68 AGAFEHLPS]	0	0	0	0
IVPPEDERQ [5T4 9-mer peptide 92 IVPPEDERQ]	0	0	0	0
RRPPLAELA [5T4 9-mer peptide 57 RRPPLAELA]	0	0	0	0
LSHNPLADL [5T4 9-mer peptide 75 LSHNPLADL]	0	0.095	0	0
NQLAVLPAG [5T4 9-mer peptide 51 NQLAVLPAG]	0	0.22	0	0
GSRLDEVRA [5T4 9-mer peptide 64 GSRLDEVRA]	0	0.13	0	0
PLADLSPFA [5T4 9-mer peptide 77 PLADLSPFA]	0	0.556	0	0
EHLPSLRQL [5T4 9-mer peptide 70 EHLPSLRQL]	0	0.046	0	0
ADLSPFAFS [5T4 9-mer peptide 78 ADLSPFAFS]	0	0.116	0	0
GAFARRPPL [5T4 9-mer peptide 55 GAFARRPPL]	0	0.222	0	0.359
LAVLPAGAF [5T4 9-mer peptide 52 LAVLPAGAF]	0	0.074	0	0.049

Binder	iScore [1]	iScore [2]	iScore [3]	iScore [4]
RQLDLSHNP [5T4 9-mer peptide 73 RQLDLSHNP]	0	0	0	0
APSPLVELI [5T4 9-mer peptide 86 APSPLVELI]	0	0	0	0.101
ELILNHIVP [5T4 9-mer peptide 89 ELILNHIVP]	0	0.067	0	0
SPLVELILN [5T4 9-mer peptide 87 SPLVELILN]	0	0.094	0	0
DEVRAGAFE [5T4 9-mer peptide 66 DEVRAGAFE]	0	0	0	0
LNLSGSRLD [5T4 9-mer peptide 62 LNLSGSRLD]	0	0	0	0
AALNLSGSR [5T4 9-mer peptide 61 AALNLSGSR]	0	0	0	0
ILNHIVPPE [5T4 9-mer peptide 90 ILNHIVPPE]	0	0.426	0	0
AFSGSNASV [5T4 9-mer peptide 81 AFSGSNASV]	0	0.116	0	0
LSPFAFSGS [5T4 9-mer peptide 79 LSPFAFSGS]	0	0.064	0	0
FARRPPLAE [5T4 9-mer peptide 56 FARRPPLAE]	0	0.042	0	0
NHIVPPEDE [5T4 9-mer peptide 91 NHIVPPEDE]	0	0	0	0
AFEHLPSLR [5T4 9-mer peptide 69 AFEHLPSLR]	0	0	0	0
PAGAFARRP [5T4 9-mer peptide 54 PAGAFARRP]	0	0	0	0
SGSNASVSA [5T4 9-mer peptide 82 SGSNASVSA]	0	0	0	0
VRAGAFEHL [5T4 9-mer peptide 67 VRAGAFEHL]	0	0	0	0.085
FLTGNQLAV [5T4 9-mer peptide 49 FLTGNQLAV]	0	0.791	0	0
NLFLTGNQL [5T4 9-mer peptide 48 NLFLTGNQL]	0	0.107	0	0
ELAALNLSG [5T4 9-mer peptide 60 ELAALNLSG]	0	0.075	0	0
LDLSHNPLA [5T4 9-mer peptide 74 LDLSHNPLA]	0	0.226	0	0
ASVSAPSPL [5T4 9-mer peptide 84 ASVSAPSPL]	0	0.059	0	0.017
VSAPSPLVE [5T4 9-mer peptide 85 VSAPSPLVE]	0	0	0	0
SNASVSAPS [5T4 9-mer peptide 83 SNASVSAPS]	0	0.154	0	0
